# Bridges are numbered along the chain shown (N, C = ends).
# T1: rabbit albumin (rabbit, UniProt P49065 25-608)
# T1 chain: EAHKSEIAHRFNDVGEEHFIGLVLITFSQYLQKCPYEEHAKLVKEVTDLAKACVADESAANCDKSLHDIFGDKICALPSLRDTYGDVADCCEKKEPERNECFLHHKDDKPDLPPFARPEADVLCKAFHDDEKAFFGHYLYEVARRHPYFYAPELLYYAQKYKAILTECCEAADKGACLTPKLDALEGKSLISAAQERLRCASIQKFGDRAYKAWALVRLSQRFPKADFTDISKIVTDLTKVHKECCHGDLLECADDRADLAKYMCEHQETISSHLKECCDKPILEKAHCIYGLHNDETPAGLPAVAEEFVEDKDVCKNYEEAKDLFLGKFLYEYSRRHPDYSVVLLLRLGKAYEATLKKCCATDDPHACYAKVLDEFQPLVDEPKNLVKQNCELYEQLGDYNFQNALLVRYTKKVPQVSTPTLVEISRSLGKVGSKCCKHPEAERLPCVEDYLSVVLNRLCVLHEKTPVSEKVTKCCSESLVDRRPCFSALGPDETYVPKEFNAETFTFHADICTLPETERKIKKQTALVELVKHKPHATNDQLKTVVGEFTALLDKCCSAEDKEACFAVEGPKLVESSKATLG
# Target: T1, rabbit albumin
# Experiment: competition ELISA (SA08b binding to rabbit albumin)
binder,measurement,value
Ac-QGLIGDICLPRWGCLWGDSVK-NH2 (disulfide 8-14 (inferred)) [SA08],IC50,33 nM

# — patent publication US20070202045A1 (published 2007)
